According to article PMC5256278:

Assays:
[1] = biological target: squid hemocyanin (Todarodes pacificus) (Todarodes pacificus); assay: SAXS; Hc after high hydrostatic pressure at 200 MPa for 20 min; Kratky-type camera; aggregation numbers calculated with SAXS Quant 2.0
[2] = biological target: squid hemocyanin (Todarodes pacificus) (Todarodes pacificus); assay: SAXS; untreated control Hc (0.1 MPa, 25 °C) in solution; Kratky-type camera; aggregation numbers calculated with SAXS Quant 2.0
[3] = biological target: squid hemocyanin (Todarodes pacificus) (Todarodes pacificus); assay: SAXS; Hc after high hydrostatic pressure at 600 MPa for 20 min; Kratky-type camera; aggregation numbers calculated with SAXS Quant 2.0
[4] = biological target: squid hemocyanin (Todarodes pacificus) (Todarodes pacificus); assay: SAXS; Hc after high hydrostatic pressure at 400 MPa for 20 min; Kratky-type camera; aggregation numbers calculated with SAXS Quant 2.0

〈Nagg〉G (Guinier aggregation number) [1]: 11.9
〈Nagg〉Q (average aggregation number) [1]: 12.7
〈Nagg〉G (Guinier aggregation number) [2]: 10.2
〈Nagg〉Q (average aggregation number) [2]: 9.3
〈Nagg〉G (Guinier aggregation number) [3]: 16
〈Nagg〉Q (average aggregation number) [3]: 15.2
〈Nagg〉G (Guinier aggregation number) [4]: 14.2
〈Nagg〉Q (average aggregation number) [4]: 14.4
Substance: squid hemocyanin (Todarodes pacificus) (natural protein)
